Values quoted from earlier work in article PMC2853873.
Where two headings read alike, the source gives them in different places.

What was measured:
ADAMTS-2 (Homo sapiens) [1] = molecular target: ADAMTS-2 (Homo sapiens) (UniProt O95450)
ADAMTS-2 (Homo sapiens) [2] = molecular target: ADAMTS-2 (Homo sapiens) (UniProt O95450); remark: listed apart in the source

Sequence of UniProt O95450 (O95450 254-1211): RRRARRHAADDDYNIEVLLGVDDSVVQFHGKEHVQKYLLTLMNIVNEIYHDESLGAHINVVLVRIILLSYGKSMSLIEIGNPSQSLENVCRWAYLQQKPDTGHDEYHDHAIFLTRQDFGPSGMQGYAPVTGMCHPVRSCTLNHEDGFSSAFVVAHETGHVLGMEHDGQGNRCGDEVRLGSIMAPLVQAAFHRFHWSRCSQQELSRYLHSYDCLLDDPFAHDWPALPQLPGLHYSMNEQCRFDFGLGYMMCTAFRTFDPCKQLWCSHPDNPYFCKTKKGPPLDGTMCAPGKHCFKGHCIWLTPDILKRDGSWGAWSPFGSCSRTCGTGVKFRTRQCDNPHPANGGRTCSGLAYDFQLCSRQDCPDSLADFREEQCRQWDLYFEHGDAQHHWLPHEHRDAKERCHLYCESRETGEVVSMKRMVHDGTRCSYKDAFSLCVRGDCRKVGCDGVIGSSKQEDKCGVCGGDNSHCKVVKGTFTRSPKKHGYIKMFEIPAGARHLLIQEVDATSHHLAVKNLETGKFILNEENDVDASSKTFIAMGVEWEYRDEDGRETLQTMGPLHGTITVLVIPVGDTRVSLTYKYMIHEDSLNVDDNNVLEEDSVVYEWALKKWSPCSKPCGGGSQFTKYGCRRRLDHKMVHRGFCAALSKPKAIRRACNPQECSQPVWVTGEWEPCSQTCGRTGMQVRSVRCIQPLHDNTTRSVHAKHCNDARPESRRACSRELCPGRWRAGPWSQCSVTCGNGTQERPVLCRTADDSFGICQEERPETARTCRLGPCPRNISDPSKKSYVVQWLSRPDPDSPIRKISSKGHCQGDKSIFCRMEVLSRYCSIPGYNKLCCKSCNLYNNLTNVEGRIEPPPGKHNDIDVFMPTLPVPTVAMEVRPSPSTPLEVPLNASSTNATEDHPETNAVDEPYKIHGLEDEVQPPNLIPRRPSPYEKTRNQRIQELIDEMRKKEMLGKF

Substance: N-TIMP-3 N-terminal domain (from UniProt P35625)
- Ki (ADAMTS-2 (Homo sapiens) [1]): 160 nM
- Ki (ADAMTS-2 (Homo sapiens) [2]): 600 nM
